In article PMC12923992 (Cell metabolism, 2026) one finds Kd data, which are given here for 1 molecule.

For this assay, the target named is T1, N-terminal cytosolic domain of Band 3 (residues 1–395) (human, UniProt P02730 1-395).
T1 sequence (looked up): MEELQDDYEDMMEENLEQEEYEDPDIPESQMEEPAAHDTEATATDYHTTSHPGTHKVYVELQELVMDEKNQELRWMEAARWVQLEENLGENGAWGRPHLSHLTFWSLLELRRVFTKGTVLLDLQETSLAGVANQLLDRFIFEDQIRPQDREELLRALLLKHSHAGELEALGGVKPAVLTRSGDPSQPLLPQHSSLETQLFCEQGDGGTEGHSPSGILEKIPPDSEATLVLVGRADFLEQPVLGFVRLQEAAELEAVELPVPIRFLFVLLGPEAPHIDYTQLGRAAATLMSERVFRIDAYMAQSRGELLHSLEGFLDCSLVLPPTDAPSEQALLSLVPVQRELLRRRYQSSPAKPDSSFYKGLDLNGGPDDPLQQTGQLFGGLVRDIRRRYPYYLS
In words: ITC. For orientation: In ITC the heat of successive injections is recorded.

B1: recombinantly-expressed human GAPDH (enzyme)
chain: not shown
The Kd is a measure of binding affinity in units of concentration. Low readings indicate a tighter complex, high ones a looser complex. Turning to B1, the affinity, expressed as Kd, was 1180 nM.
